The results in this text go back to the DeepSol protein solubility set.

This data set in a line: soluble on expression in E. coli; label from the status in PepcDB or PDB records.
On to “MKLNIRAQTAQNQHNNSPIVLVHGLFGSLDNLGVLARDLVNDHNIIQVDMRNHGLSPRDPVMNYPAMAQDLVDTLDAQQIDKATFIGHSMGGKAVMALTALASDRIDKLVAIDIAPVDYHVRRHDEIFAAINAVSESDAQTRQQAAAIMRQHLNEEGVIQFLLKSFVDGEWRFNVPVLWDQYPHIVGWEKIPAWDHPALFIPGGNSPYVSEQYRDDLLAQFPQARAHVIAGAGHWVHAEKPDAVLRAIRRYLND”, for which the “soluble on expression in E. coli” value is given as “not soluble”.

As for “MSLEEVLKDIERDKEEKKKEIADAASRETAKIEKEREEKIQILQREYENRMREEGSRLYNSIIDKANVEARNIVRMRVQEILDQYGAKADELIKNLAKTKEYDDVLKKMIEVSRKALGPDCIVKVNTADKGRISDGNIKFEDIDPYGGVLATSRDGKIELDLRISSIRRDILERFKVRLYSMIED”, the “soluble on expression in E. coli” value is on record as “not soluble”.

Take “MNYMELYDVDEFWKFQMKVGLVKKAEKIKRTKKLIKLIVDFGNEERTIVTGIADQIPPEELEGKKFIFVVNLKPKKFSGVESQGMLILAETEDGKVYLIPVPEEVPVGARVW”: the “soluble on expression in E. coli” value is “soluble”. For “MGIHRLWKRFTIDCSGVRRGQTVLDLAGGTGDLTAKFSRLVGETGKVVLADINESMLKMGREKLRNIGVIGNVEYVQANAEALPFPDNTFDCITISFGLRNVTDKDKALRSMYRVLKPGGRLLVLEFSKPIIEPLSKAYDAYSFHVLPRIGSLVANDADSYRYLAESIRMHPDQDTLKAMMQDAGFESVDYYNLTAGVVALHRGYKLEHHHHHH” the value was “not soluble”; for “MSLNCTLDELRQRIEAHRPRQLDTDQRFPQAAVLVPITRSDDPELVLTLRAAGLSTHGGEVAFPGGRRDPEDADLVRTALREAEEEIALPPGLVEVVGPLSTLVSRHGIEVTPYVAFIPDFVEYQPNDGEIAAVFNVPLSFFRDDPREVTHRIDYFGRSWYVPSYRFGEFKIWGLTAIMVVELVNLLYDDPIDLHTPPASFIKLSEGGSHHHHHH”, “soluble”; for “MFRREIQERENWRELARQFGFGFHSMYGQPYWDESAYYQFTLEQIEHDLESPTEELHQMCLSIVDEVVRCEQLLTKCAIPELMWEQVASSWQRKEPSLYSRLDFAYNGTSPAKLLENNADTPTSLFETGFWQWVWLEDVVNKGRIHQAADQFNILQDFLIERFAEIAKYQPGQTLHFSCCKYTEEDKATVQYLEDCAREVGLATAFVYVEDIGVTEDGKFVDVDRRAIRWMFKLYPWEFMFEEEYAKYLATANVNWLEPMWKSILSNKALLPLLWERFPNHPNLLPAYFANDPNASCLNDYVIKPLFSREGANIEIVKDGKRLVKTPGPYESKFNIVQKYHPLPKFGQNHTLIGSWLVNDRAAGISIREDSSLVTQDMARYIPHVILT”, “not soluble”. For “MNIILKISGKFFDEDNVDNLIVLRQSIKELADNGFRVGIVTGGGSTARRYIKLAREIGIGEAYLDLLGIWASRLNAYLVMFSLQDLAYMHVPQSLEEFIQDWSHGKVVVTGGFQPGQSTAAVAALVAEASSSKTLVVATNVDGVYEKDPRIYADVKLIPHLTTQDLRKILEGSQSVQAGTYELLDPLAIKIVERSKIRVIVMNYRKLNRIIDILKGEEVSSIIEPV” the value was “soluble”; for “MRQAASIACIGGANVDRKARLLTPFRLGTSHPVTTTQTAGGVARNIAENLGRLAQPVSLVSTVGDDRDGQWLVDVTSRYVNTSFIVRTPKANTGTYTAVLDERGEMVLALADMAIYHPEPRRPPLPRVSVSGG”, “not soluble”.

Turning to “MAKPIMAKATAVWLVDNTTLSFKQIADFVGMHELEVQGIADGDVAQGVKGFDPIANNQLTQDEIDTAQNNPLHKLKLKFNAAAQGEEKRRGPRYTPLSKRQDRPASILWLVKFHPELTDGQISKLIGTTKPTIQAIRERTHWNISNIQPIDPVALGLCKQSELDMAVQKAAAKKAADAPVMLEHHHHHH”, the “soluble on expression in E. coli” value was “soluble”. “MLKIGVITMALLSFLNAGWLGNLFDSTPTPYYKMPIDLSKAGNVTETDIRIDEKYSVYVELYYDYRKQKISGDRYGEIIDKYFGRHKLFPIFPIKLTVLKYEKTGTTMVVDKIYYTNSLGRTYSSREIDEFKLQEGSKYHIKVETVEDYPELAELNVEVVIGYIKAK”: the “soluble on expression in E. coli” value is “not soluble”. For “MGHHHHHHHHSSGHIEGRHMAHLLIVNVASHGLILPTLTVVTELVRRGHRVSYVTAGGFAEPVRAAGATVVPYQSEIIDADAAEVFGSDDLGVRPHLMYLRENVSVLRATAEALDGDVPDLVLYDDFPFIAGQLLAARWRRPAVRLSAAFASNEHYSFSQDMVTLAGTIDPLDLPVFRDTLRDLLAEHGLSRSVVDCWNHVEQLNLVFVPKAFQIAGDTFDDRFVFVGPCFDDRRFLGEWTRPADDLPVVLVSLGTTFNDRPGFFRDCARAFDGQPWHVVMTLGGQVDPAALGDLPPNVEAHRWVPHVKVLEQATVCVTHGGMGTLMEALYWGRPLVVVPQSFDVQPMARRVDQLGLGAVLPGEKADGDTLLAAVGAVAADPALLARVEAMRGHVRRAGGAARAADAVEAYLARAR” the value was “soluble”; for “MWTEQHVKEIDSIIRKKEDEQLSLPIMEQKLQINNRRYLGSKYKLLEFICKVVRENCTSVSSVADIFGGTGVVADRFNKEGKDIIVNDILYSNYLAYLTWFSNEKVNITKIEKLIKFFNESEPTEDNYVSINFGGTYFTEYNARKIGYVREEIEKMSDELNAREKAILITSLIYAMDKVANTVGHYDAYRRKLDSIKEIKLLMPEFNDGLNNGNKIFKEDANELVRKISADLIYIDTPYNSRQYGDAYHLLENIAEWEKPDLVGVAKKMIDRSHIKSDYCTMKATSAFADLISNIKGKYILVSYNNMAQKGVGRSNAKISSEEIVEILETRGTVEIFETNFQAYTTGKTNIDDHKEILYLCEVSR”, “not soluble”. For “GVTYLLAKRKILYFEAVESKIFVYTEKDVYETTWKLYELEEKFKDSSFFRCSKSMILNIEWIEKIAPGFHGKFEASLFNREKVIISRQYAKILKQKLNLGGKGK” the value was “not soluble”; for “MKLKKLQIEPTTFCTLDCEYCHRKSIPPQDLPLEVLDRVNGVAKEYVIYGYGEPLLYPDFFKRIEGFDGKVVISTNGMLDSDILDLADKVGVSIDVNDKFRKGLEVEKALEVLRKLGERGIAEVVVTKDNLELLPAFFERIAEHGSGMLATNVVASNPAIYEQGVYFECSRITVEKVLGLDESILVEAIKDCSRGGGEALRRYKHLLKEVYSKGYSINLLAIFGRKGRVETAFKAEGVFEMLRDLAGDYGVELIEPSFFGDSKARECPYRDSAFLRVDGKISSCMSFAYTHTEYVDGHYKKVEKFCPGNVLKEDIDDVIGKMAEFERVRADMENFPWCADCPYVEGCWYAETNVDCYANLPSCSECLYSSGIAKCLLGD”, “not soluble”. For “MFGVKDAIFKIKRSIAGTDSSDSTAYTTASESSPQLKDSHNPFRNKTTSERTIVEEGSLPPVRLNGYLPSTKNKLLTPEMCDEIRTLMPTRIQLYTEWNLLYSLEQHGSSLHSLYSNVAPDSKEFRRVGYVLVIKDRKNGIFGAYSNEAFHPNEHRQYTGNGECFLWKLDKVPDVNISEKEESEQEGKEGKEEGDKEERWRFSGYPYTGVNEFAIYCTSEFLSMGAGDGHYGLLCDDGLLHGVSNPCQTYGNEVLSKEGKKFSIVALEVWRVG” the value was “soluble”; for “MSLNRSSFDLLSTVEYGGCSAKLDPAKLSELLHDIPLPVDSRIMVDVSTHDDAGVYRLNDDTALIVTTDFFPPVCSDPYTFGRIAAANALSDVYAMGGRPLLVLNLTMFPSEGIPVEVLADILRGGQQTIDESGAFTMGGHTIDDPIPKYGLAVTGIVHPEHLVTNAGVRAGQCLVLTKPLGIGVAMAAHRLGLIGSEVYEAAIGQMCLLNRAGAELMQKYGIRGATDITGFGLLGHAKELAEASDVCLHIDSRSVPVLPECLSLLRDGCIPGATFRNLRFVGDMLRADCPTEYKMLLADAQTSGGLLMAVDADRAEDLVADLHRTGLHPFAAIIGYATDAEDAAKLIVTEGHHHHHH”, “soluble”. With “MGSDKIHHHHHHMKAVTLRANCDPLFSLFMTSFSEANNIYILNFKKRALQSLLKVKLMYYHESIDSKSKIFPVKIILHDKAVNVPKHWHRSLEISYTYQGSIPDFTIAGKHYSTRPGTILVVNSNEIHSVFFPKTKKRQDSLALSLIFPYPFLMKIVPNYRYRRYEIPDKELLTANNQQNLAELEGILKKFFQFASHQTNSLDEISKTSQILQILYLLTKNFSSIVTTPNDLATTDKPFERLDEIIMFIQEHAKEALTVTKIADHFNLSTSYFSRNFKYYMGNSVIEYLNLVRLHEAYQLLTNTKKSILVISTQVGFPNEKAFTRTFKRIYKVTPTDYRKRLSGKNRTNIL”, the “soluble on expression in E. coli” value is given as “not soluble”. The value for “MVGPLKIGRHEVKYPLIQGGMGVRISGGRLAGHVAKCGGVGLVAAAGISLSGLFTGANYLQSNPEAMRKELRKAYAIAPDGVIGVNIMVALTDYEELVRASIDGGAKVIVCGAGLPLTLPELTAHAPEVALVPIVSSVRAAQLIAKKWEKGFGRLPDAVVVEDPDTAGGHLGEKLENIGAGTYDQYGTIRAIKAYFLEEYGVSVPVVAAGGIWDRDDVLHAFEQGADAVQMASRFVPTVECDADDAYKQAYLECRREDIGLIMSPAGLPGRAILRNQDQIVLHDQLKGVACGNGCLKKCSYKETGERFCIVNALDRAQRGDVETGLVFCGTNAWKADRITTVQEIFDELFAVGEESEKAA” was “not soluble”. For “VSAASLSKSAPAEPQPGPPQPAAGPQALPAIGGLTPFSSVDWPGQLAAVVFIAGCPWRCHYCHNPHLQERARGLDWREVLDFLGRRRNLLDAVVFSGGEPLSEPRLPQLIDAARALGLRIGLHTGGIYPARFAEVLPRLDWVGLDIKTTAPRYDALTGRRGSAAPVDACLDLLLRSHCAFECRTTWHPDWLPEPQLLALAQSLCSRGVKHYAIQAYRSAPGTLATALPSEATQHALAACFSSFSCR” the value was “soluble”; for “GPGSMPTAKVTEKEAACVTALKGEYPASKADPADAGFLSDSTYLRFARAHDGNVKKASELLGATLRWRKQTKPYAITMEEVQNAMKQTTMYCGGRCNIGCPVIAMVPGMQNDCTVEERTKQLVYIMEETHRKGYERITWIIDFGAMGSHRDERSKEARKETMKILQDYYPERMARILLYRTPWYIRMLLGAAKMFMDARTAAKVYNAGRTIEALEKFVDRDQVPPVCGGTMKGSALSHLEELPSLNSE”, “not soluble”. For “MYKTFYSLSREPFAKETDPSEAYQGAAFQEALRALEYVKRTRGIGLLIGEPGAGKTFALRALKESLNPSLYHVVYFPLSTGGVMDFYRGLALGLGEEPKYRKVDLFRQIQQAIERLHHERRITPVFILDEMHLAKDAFLQDIAILFNFEMDSTNPFVLILAGLPHLQGKLRLNQHRPLDQRIIMRYRMGPMEKEEVAGYIEHRMKQAGAKHPIFTPSALEAIALQSRGWPRVINTLATTCLLYGHQLKKDVIDEEVVRMAAEEMGY” the value was “not soluble”; for “MKRDGHTHTEFCPHGTHDDVEEMILKAIELDFDEYSIVEHAPLSSEFMKNTAGNQEAVTTASMSMSDLPYYFKKMNQMKKKYASDLLIHIGFEVDYLIGYEDFTRDFLNEYGPQTDDGVLSLHFLEGQGGFRSIDFTAEDYNEGIVQFYGGFEQAQLVYLAGVKQSIEADLGAFKPRRIGHISLCQKFQQFFGADGRDFTAEVIAEFEAILALVKKRGYELDFNTAGLFKPLCKETYPPKEIVTLARALEIPFVYGSDSHGVADIGRGYNTYCQKLEHHHHHH”, “soluble”; for “MKTSIIILTCNNLRYSRRCIESIKKYTEKEAYEIIVVDNNSNDGTRNWLSKQKAIKKIYNNVNVGFPRGCNMGIKVACGSEVLLLNNDVVVTHNWLNNLRNCLYSSYEIGAVGPISNNCSNGQKINVRYDSIEDMHRFSKKYNISNKKKWTEVKRLIGFCFLIKRNVIRKVGLFDERFTPGNFEDDDYCIRMRKIGFRLMLCKDTFVHHYGSVSFKNTQYLKLLEVNKSKLEKKWGKSYDKLVLEHHHHHH”, “not soluble”.
